Assay results: publication PMC7710356, “RNF41 regulates the damage recognition receptor Clec9A and antigen cross-presentation in mouse dendritic cells” (eLife, 2020)

Assays:
[1] = biological target: T1, mutant CLEC9A ectodomain (hCLEC9A W131A, W227A) (human, UniProt Q6UXN8 57-241, W131A | W227A); assay: ELISA; plates coated with GST-RNF41-C, GST-RNF41-RBC or GST (10 μg/ml); FLAG-tagged Clec ectodomains 10 to 0.04 μg/ml in solution; detected with anti-FLAG HRP; settings: both partners purified
T1 construct: human CLEC9A extracellular region (ecto) with W131A and W227A in the CTLD; Same construct as m2 with the two tryptophan mutations; also called hCLEC9A-ecto (W->A); hCLEC9A-ecto W->A
T1 sequence (Q6UXN8 57-241 W131A/W227A): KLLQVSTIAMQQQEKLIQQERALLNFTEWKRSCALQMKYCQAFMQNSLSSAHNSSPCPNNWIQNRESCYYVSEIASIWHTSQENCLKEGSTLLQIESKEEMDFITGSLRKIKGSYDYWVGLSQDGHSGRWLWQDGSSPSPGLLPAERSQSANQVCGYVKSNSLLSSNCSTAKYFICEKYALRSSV

[2] = biological target: T2, FLAG-tagged recombinant human CLEC9A ecto-domains (hCLEC9A-ecto) (human, UniProt Q6UXN8 57-241); assay: as above; settings: both partners purified
T2 construct: human CLEC9A, full extracellular region (ecto) including the CTLD and stalk; also called human wild-type CLEC9A
T2 sequence (Q6UXN8 57-241): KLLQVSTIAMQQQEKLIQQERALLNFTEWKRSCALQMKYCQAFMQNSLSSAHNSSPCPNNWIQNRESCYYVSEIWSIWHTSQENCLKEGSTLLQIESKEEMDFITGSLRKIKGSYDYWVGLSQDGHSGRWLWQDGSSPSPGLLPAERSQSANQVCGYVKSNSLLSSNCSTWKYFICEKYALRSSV

binding result [1]: binds
binding result [2]: binds
B1: GST-tagged RNF41 C-terminal domain (RNF41-C) (domain or fragment, human, UniProt Q9H4P4 169-317, looked up)
chain: DIQLLKAYMRAIRSVNPNLQNLEETIEYNEILEWVNSLQPARVTRWGGMISTPDAVLQAVIKRSLVESGCPASIVNELIENAHERSWPQGLATLETRQMNRRYYENYVAKRIPGKQAVVVMACENQHMGDDMVQEPGLVMIFAHGVEEI
notes: RNF41 C-terminal domain; region 169-DIQL…VEEI-317; Cloned into a modified pGEX-2T vector; also called GST-RNF41-C; source: E. coli BL21 DE3, purified (Glutathione-Sepharose, SEC)
